# Assay results from paper doi:10.1101/2025.09.11.675682 (2025).
# T1: SLP-76 159-533 (Homo sapiens, UniProt Q13094)
# T1 chain: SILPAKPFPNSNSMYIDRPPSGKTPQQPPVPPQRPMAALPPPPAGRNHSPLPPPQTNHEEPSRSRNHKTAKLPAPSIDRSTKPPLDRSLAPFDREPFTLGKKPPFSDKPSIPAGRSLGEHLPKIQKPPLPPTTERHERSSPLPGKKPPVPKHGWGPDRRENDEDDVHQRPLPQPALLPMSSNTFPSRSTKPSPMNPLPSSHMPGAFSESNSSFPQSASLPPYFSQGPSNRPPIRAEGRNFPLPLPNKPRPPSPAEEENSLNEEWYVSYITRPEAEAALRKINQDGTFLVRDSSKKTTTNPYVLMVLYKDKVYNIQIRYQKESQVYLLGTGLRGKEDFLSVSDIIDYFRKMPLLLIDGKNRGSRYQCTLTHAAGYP
# T2: LAT 125-178 (Homo sapiens, UniProt O43561)
# T2 chain: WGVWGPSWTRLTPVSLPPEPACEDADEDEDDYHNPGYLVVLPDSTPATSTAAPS
# B1: PLC-γ1 (Phospholipase C-γ1), 1–1219 (enzyme)
# chain: MAGAASPCANGCGPGAPSDAEVLHLCRSLEVGTVMTLFYSKKSQRPERKTFQVKLETRQITWSRGADKIEGAIDIREIKEIRPGKTSRDFDRYQEDPAFRPDQSHCFVILYGMEFRLKTLSLQATSEDEVNMWIKGLTWLMEDTLQAPTPLQIERWLRKQFYSVDRNREDRISAKDLKNMLSQVNYRVPNMRFLRERLTDLEQRSGDITYGQFAQLYRSLMYSAQKTMDLPFLEASTLRAGERPELCRVSLPEFQQFLLDYQGELWAVDRLQVQEFMLSFLRDPLREIEEPYFFLDEFVTFLFSKENSVWNSQLDAVCPDTMNNPLSHYWISSSHNTYLTGDQFSSESSLEAYARCLRMGCRCIELDCWDGPDGMPVIYHGHTLTTKIKFSDVLHTIKEHAFVASEYPVILSIEDHCSIAQQRNMAQYFKKVLGDTLLTKPVEISADGLPSPNQLKRKILIKHKKLAEGSAYEEVPTSMMYSENDISNSIKNGILYLEDPVNHEWYPHYFVLTSSKIYYSEETSSDQGNEDEEEPKEVSSSTELHSNEKWFHGKLGAGRDGRHIAERLLTEYCIETGAPDGSFLVRESETFVGDYTLSFWRNGKVQHCRIHSRQDAGTPKFFLTDNLVFDSLYDLITHYQQVPLRCNEFEMRLSEPVPQTNAHESKEWYHASLTRAQAEHMLMRVPRDGAFLVRKRNEPNSYAISFRAEGKIKHCRVQQEGQTVMLGNSEFDSLVDLISYYEKHPLYRKMKLRYPINEEALEKIGTAEPDYGALYEGRNPGFYVEANPMPTFKCAVKALFDYKAQREDELTFIKSAIIQNVEKQEGGWWRGDYGGKKQLWFPSNYVEEMVNPVALEPEREHLDENSPLGDLLRGVLDVPACQIAIRPEGKNNRLFVFSISMASVAHWSLDVAADSQEELQDWVKKIREVAQTADARLTEGKIMERRKKIALELSELVVYCRPVPFDEEKIGTERACYRDMSSFPETKAEKYVNKAKGKKFLQYNRLQLSRIYPKGQRLDSSNYDPLPMWICGSQLVALNFQTPDKPMQMNQALFMTGRHCGYVLQPSTMRDEAFDPFDKSSLRGLEPCAISIEVLGARHLPKNGRGIVCPFVEIEVAGAEYDSTKQKTEFVVDNGLNPVWPAKPFHFQISNPEFAFLRFVVYEEDMFSDQNFLAQATFPVKGLKTGYRAVPLKNNYSEDLELASLLIKIDIFPAKENGD
# B2: Gads 1-322 (protein)
# chain: MEAVAKFDFTASGEDELSFHTGDVLKILSNQEEWFKAELGSQEGYVPKNFIDIQFPKWFHEGLSRHQAENLLMGKEVGFFIIRASQSSPGDFSISVRHEDDVQHFKVMRDNKGNYFLWTEKFPSLNKLVDYYRTNSISRQKQIFLRDRTREDQGHRGNSLDRRSQGGPHLSGAVGEEIRPSMNRKLSDHPPTLPLQQHQHQPQPPQYAPAPQQLQQPPQQRYLQHHHFHQERRGGSLDINDGHCGTGLGSEMNAALMHRRHTDPVQLQAAGRVRWARALYDFEALEDDELGFHSGEVVEVLDSSNPSWWTGRLHNKLGLFPA
# B3: PLC-γ1 1-1219 (protein)
# chain: B1 chain
# modifications: pY132, pY171
# B4: Gads 1-322 (protein)
# chain: B2 chain
# modifications: pY132, pY171
# B5: SLP-76 PRR peptide (aa 185–200), wild type (peptide)
# peptide: QPPVPPQRPMAALPPP
# What was measured:
# Experiment in all cases: ITC
# [1] = target: SLP-76 PRR peptide (aa 185–200), high affinity mutant (UniProt Q13094 185-200)
# SLP-76 159-533 = target: T1, SLP-76 159-533
# LAT 125-178 = target: T2, LAT 125-178
# [2] = target: B1
binder,measurement,setting,value
B1,Kd,[1],1000 nM
B2,Kd,SLP-76 159-533,3.6 nM
B3,Kd,LAT 125-178,84 nM
B4,Kd,LAT 125-178,213 nM
B5,Kd,[2],2360 nM
